Laboratory results published in patent US20160009801A1 (EMORY UNIVERSITY, published 2016).
Residue numbers refer to the chain shown, from its start. Blank lines part the entries; values can stand above or below the binder they belong to.

Legend:
[1] = target: T1, human glycoprotein Ib alpha (GPIba) on platelets (human, UniProt P07359 17-652); test: flow cytometry on washed human platelets, FITC goat anti-mouse IgG
T1 construct: whole, on cells; On platelets GPIba is part of the GPIb-IX-V complex; also called human GPIba; washed human platelets

[2] = target: T2, purified human GPIb-IX complex (human, UniProt P07359 17-652; P13224 26-206; P14770 17-177); test: ELISA, purified mAb titrated on immobilized purified human GPIb-IX, fitted Kd
T2 construct: mature; Native complex purified from outdated human apheresis platelets; also called purified human glycoprotein (GP)Ib-IX; immobilized GPIb-IX
Procedure: (A, C, D) GPIb-IX or the peptide was immobilized in microtiter plates. Purified mAbs, each identified by the clone name and colored as indicated, and negative controls, in the form of mouse IgG or BSA, were added to the coated wells. The bound Ab was detected with biotinylated goat anti-mouse IgG. Data are presented as the mean SD (n=3).
After incubation in the blocking buffer (20 mmol L⁻¹ HEPES, 0.2 mol L⁻¹ NaCl, 0.05% Tween-20, 2% BSA, pH 7.4) at room temperature (RT) for 2 h, different doses of normal mouse IgG or purified mAb dissolved in the blocking buffer were added to the wells and incubated for 1 h. The wells were then washed three times with the blocking buffer without BSA and incubated for an additional 1 h with biotinylated goat anti-mouse IgG (1:50 in the blocking buffer). After three washes, the wells were incubated for 1 h with streptavidin alkaline phosphatase (1:2000 in the blocking buffer).

[3] = target: T3, wild-type murine GPIba on WT (C57BL/6J) mouse platelets (mouse, UniProt O35930 17-734); test: flow cytometry, biotin-labeled 5G6 on mouse whole blood, gated on platelets, FITC-streptavidin
T3 construct: whole, on cells; also called mouse GPIba; WT mouse platelets
T3 sequence (looked up): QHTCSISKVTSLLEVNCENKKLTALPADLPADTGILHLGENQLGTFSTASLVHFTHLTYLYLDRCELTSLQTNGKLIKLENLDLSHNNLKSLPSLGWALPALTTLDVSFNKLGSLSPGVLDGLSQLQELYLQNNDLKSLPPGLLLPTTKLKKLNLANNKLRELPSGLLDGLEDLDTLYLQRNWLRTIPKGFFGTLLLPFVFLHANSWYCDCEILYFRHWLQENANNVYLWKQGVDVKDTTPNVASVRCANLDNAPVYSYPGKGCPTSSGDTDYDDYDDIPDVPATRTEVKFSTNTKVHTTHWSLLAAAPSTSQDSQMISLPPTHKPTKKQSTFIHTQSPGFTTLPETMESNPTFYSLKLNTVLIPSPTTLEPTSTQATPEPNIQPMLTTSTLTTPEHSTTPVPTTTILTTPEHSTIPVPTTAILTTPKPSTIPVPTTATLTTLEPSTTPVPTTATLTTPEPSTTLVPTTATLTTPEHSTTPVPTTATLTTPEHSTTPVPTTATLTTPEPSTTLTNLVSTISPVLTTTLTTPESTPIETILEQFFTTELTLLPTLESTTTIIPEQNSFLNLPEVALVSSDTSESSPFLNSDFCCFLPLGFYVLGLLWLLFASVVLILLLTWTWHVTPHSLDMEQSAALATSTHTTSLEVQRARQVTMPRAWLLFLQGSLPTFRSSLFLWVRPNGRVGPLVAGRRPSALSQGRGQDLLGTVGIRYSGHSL
Procedure: The binding to platelets was analyzed by flow cytometry with gating specific on platelets.

binding result [1]: binds
B1: monoclonal antibody 3D1 (antibody, V domains shown)
VH: QIQLVQSGPELKKPGETVKISCKASGYTFTDFAMHWVKQAPRKGLKWMGWINTETGEPTYADDFKGRFAFSLGTSASTAFLQINNLKNEDTATYFCSSDPLDYWGQGTTLTVSS
VL: DVVVTQTPLSLPVSFGDQVSISCRSSQSLTNSYGNTYLSWFLHKPGQSPQLLIYEISNRFSGVPDRFSGSGSGTDFTLKISTIKPEDLGIYYCLQGTHQPWTFGGGTKLEIK
notes: Mouse hybridoma mAb; also called 3D1.C1; 3D1.E3

Kd [2]: 3.29 nM | binding result [3]: no binding (tested: 4 µg mL^-1)
B2: monoclonal antibody 5G6 (antibody, V domains shown)
VH: QVTLKESGPGILQPSQTLSLTCSFSGFSLSTSNMGVVWIRQPSGKGLEWLLHILWNDGKFYNPALKSRLTISKDTYNNQVFLKIANVDTADTATYYCARLFTTTTSGYFDVWGAGTTVTVSS
VL: DIQMTQSPASLSASVGETVTITCRASGNIYNYLAWYQQKQGKSPQLLVYNAKTLADGVPSRFSGSGSGTQYSLKINSLQPEDFGSYFCQHFWDTPWTFGGGTKLEIK
notes: Mouse hybridoma mAb raised against the human GPIba Glu455-Phe478 peptide; also called clone 5G6; 5G6.B4

Kd [2]: 28.2 nM
B3: monoclonal antibody 15C6 (antibody, V domains shown)
VH: B2 VH with P42S, T102S
VL: B2 VL with Y30H, K52E, G66E, S85T, F87Y
notes: Mouse hybridoma mAb; also called 15C6.D3
